Test results as given in patent US6998239 (dated 2006).

B1: mMIP-1gamma (murine macrophage inflammatory protein 1 gamma) (ligand)
chain: QITHATETKEVQSSLKAQQGLEIEMFHMGFQDSSDCCLSYNSRIQCSRFIGYFPTSGGCTRPGIIFISKRGFQVCANPSDRRVQRCIERLEQNSQPRTYKQ
B2: vMIPII (viral macrophage inflammatory protein II) from human Kaposi's sarcoma herpesvirus HHV8 (ligand)
chain: LGASWHRPDKCCLGYQKRPLPQVLLSSWYPTSQLCSKPGVIFLTKRGRQVCADKSKDWVKKLMQQLPVTAR
B3: MCP-3 (ligand)
chain: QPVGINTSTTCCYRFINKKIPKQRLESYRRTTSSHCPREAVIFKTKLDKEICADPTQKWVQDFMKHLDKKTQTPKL
B4: human TECK (thymus expressed chemokine) (ligand)
chain: QGVFEDCCLAYHYPIGWAVLRRAWTYRIQEVSGSCNLPAAIFYLPKRHRKVCGNPKSREVQRAMKLLDARNKVFAKLHHNTQTFQAGPHAVKKLSSGNSKLSSSKFSNPISSSKRNVSLLISANSGL
modifications: 125I label where used as radioligand
B5: murine TECK (ligand)
chain: QGAFEDCCLGYQHRIKWNVLRHARNYHQQEVSGSCNLRAVRFYFRQKVVCGNPEDMNVKRAMRILTARKRLVHWKSASDSQTERKKSNHMKSKVENPNSTSVRSATLGHPRMVMMPRKTNN
B6: human SLC (secondary lymphoid-tissue chemokine) (ligand)
chain: SDGGAQDCCLKYSQRKIPAKVVRSYRKQEPSLGCSIPAILFLPRKRSQAELCADPKELWVQQLMQHLDKTPSPQKPAQGCRKDRGASKTGKKGKGSKGCKRTERSQTPKGP
B7: murine ELC (ligand)
chain: GANDAEDCCLSVTQRPIPGNIVKAFRYLLNEDGCRVPAVVFTTLRGYQLCAPPDQPWVDRIIRRLKKSSAKNKGNSTRRSPVS
B8: murine SLC (ligand)
chain: SDGGGQDCCLKYSQKKIPYSIVRGYRKQEPSLGCPIPAILFSPRKHSKPELCANPEEGWVQNLMRRLDQPPAPGKQSPGCRKNRGTSKSGKKGKGSKGCKRTEQTQPSRG
B9: human ELC (EBI1 ligand chemokine) (ligand)
chain: GTNDAEDCCLSVTQKPIPGYIVRNFHYLLIKDGCRVPAVVFTTLRGRQLCAPPDQPWVERIIQRLQRTSAKMKRRSS
modifications: 125I label where used as radioligand

Molecular target: T1, human CCX CKR with N-terminal Flag epitope, stably expressed on HEK293 cells (UniProt Q9NPB9 1-350)
T1 chain: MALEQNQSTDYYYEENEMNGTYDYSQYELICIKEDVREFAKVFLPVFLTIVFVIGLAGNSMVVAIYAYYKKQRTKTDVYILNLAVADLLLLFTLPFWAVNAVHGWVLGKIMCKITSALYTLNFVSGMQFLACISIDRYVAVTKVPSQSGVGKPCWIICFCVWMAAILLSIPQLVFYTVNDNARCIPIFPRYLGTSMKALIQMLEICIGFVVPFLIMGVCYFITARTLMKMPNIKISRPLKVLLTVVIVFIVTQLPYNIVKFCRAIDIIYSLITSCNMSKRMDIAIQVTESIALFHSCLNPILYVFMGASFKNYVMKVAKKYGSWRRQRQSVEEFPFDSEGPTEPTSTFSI
Assay: 125I-ELC competition binding
B1 showed an IC50 of 70 nM.
B2 showed an IC50 of 90 nM.
For B3, the IC50 was greater than 2000 nM.
B4 gave an IC50 of 7 nM.
B5 showed an IC50 of 2 nM.
B6 was tested, and the IC50 was 12 nM.
B7 was tested, and the IC50 was 1 nM.
B8 was tested, and the IC50 was 4 nM.
Work on B9 yielded an IC50 of 6 nM.
